Test results from FireProtDB (doi:10.1110/ps.5101).

B1: Cytochrome c-551, P00099 (parent)
chain: MKPYALLSLLATGTLLAQGAWAEDPEVLFKNKGCVACHAIDTKMVGPAYKDVAAKFAGQAGAEAELAQRIKNGSQGVWGPIPMPPNAVSDDEAQTLAKWVLSQK

Variants of: B1
Conditions: Pseudomonas aeruginosa (strain ATCC 15692 / DSM 22644 / CIP 104116 / JCM 14847 / LMG 12228 / 1C / PRS 101 / PAO1); pH 7; 10 °C; GdnHCl; Fluorescence; sodium phosphate 50 mM; reversible: yes; structure 451C; whole UniProt chain shown

Variant | ddG of mutation (higher = less stable) [kcal/mol] | denaturant m value [kcal/mol/M] | denaturant midpoint (higher = more stable) [M] | unfolding free energy [kcal/mol]
E92V | 0.3 | 3.3 | 1.8 | 5.8
E92Q | -0.2 | 3.4 | 1.8 | 6.3
